Values belong to the binder of their own block, whether it stands above or below them.
Target: CD38 antigen on the surface of cells (U266 CD38+, MOLP8, Daudi, T-ALL cell lines, activated T cells) (human, UniProt P28907 1-300)

B1: 13F11 scFv (tested as anti-CD38 CARs, versions V1, V2 and V3) (scFv)
scFv: QIQLVQSGPELKKPGETVKISCKASGYTFKKYGMNWVKQAPGKGLKWMGWINTNTGEPTYAEEFKGRFAFSLETSASTAYLQINNLKNEDTATYFCARWYYGSTPSSYTMDYWGQGTSVTVSSGGGGSGGGGSGGGGSETTVTQSPASLSVATGEKVTIRCITSTDIDDDMNWYQQKPGEPPKVLISEGNTLRPGVPSRFSSSGYGTDFVFTIENTLSEDVADYYCLQSNNMPYTFGGGTKLEIK
Kd: 0.8 nM

B2: GMB005 scFv (tested as anti-CD38 tool CARs, versions V1, V2 and V3) (scFv)
scFv: EVQLLESGGGLVQPGGSLRLSCAVSGFTFNSFAMSWVRQAPGKGLEWVSAISGSGGGTYYADSVKGRFTISRDNSKNTLYLQMNSLRAEDTAVYFCAKDKILWFGEPVFDYWGQGTLVTVSSASGGGGSGGGGSGGGGSEIVLTQSPATLSLSPGERATLSCRASQSVSSYLAWYQQKPGQAPRLLIYDASNRATGIPARFSGSGSGTDFTLTISSLEPEDFAVYYCQQRSNWPPTFGQGTKVEIK
Kd: 119 nM

B3: 10F7 scFv (tested as anti-CD38 CARs, versions V1, V2 and V3) (scFv)
scFv: QAYLQQSGAELVRSGASVKMSCKASGYTFTSYNMHWVKQTPGQGLEWIGYIYPGNGGTNYNQKFKDKATLTADTSSSTAYMQISSLTSEDSAVYFCARGGQLGRPWFAYWGQGTLVTVSAGGGGSGGGGSGGGGSNIVLTQSPASLAASPGQRATISCRASESVDSYGNTFMYWYQQKPGQPPKLLIYLASNLESGVPVRFSGSGSRTDFTLTIDPVEADDAATYYCQQNNEDPWTFGGGTKVEIK
Kd: 30 nM

B5: 16B5 scFv (tested as anti-CD38 CARs, versions V1, V2 and V3) (scFv)
scFv: QAYLQQSGAELVRSGASVKMSCKASGYTFTSYNLHWVKQTPGQGLEWIGYIYPGNGGTNYNQKFKGKATLTADTSSSTAYMQISSLTSEDSAVYFCARGGIYYYGSSLDYWGQGTTLTVSSGGGGSGGGGSGGGGSNIVLTQSPASLAVSLGQRATISCRASESVDNYGTTFMYWYQQKPGQPPKLLIYLASNLESGVPARFSGSGSGTDFTLTIDPVEADDAATYYCQQNKEDPWTFGGGTKLEIK
Kd: 3.2 nM

B7: 27B6 scFv (tested as anti-CD38 CARs, versions V1, V2 and V3) (scFv)
scFv: QVQLKQSGPGLVQPSQSLSITCTVSGFSLTSYNIDWVRQSPGKGLEWLGVIWSGGSTDYNAAFISRLKISKDDSKSQVFFKMNSLQSDDTAIYYCARHSPLVSTPDWYFDVWGAGTTVTVSSGGGGSGGGGSGGGGSQIVLTQSPAIMSASPGEKVTMTCSTSSSVSYMHWYQQKSGTSPKRWIYDTSKLASGVPARFSGSGSGTSYSLTINNMEAEDAATYSCQQWSSYPPTFGGGTKLEIK
Kd: 2.2 nM

These reach a lower Kd. Values come first.

Kd: 0.52 nM
B4: 29B4 scFv (tested as anti-CD38 CARs, versions V1, V2 and V3) (scFv)
scFv: EVQLVESGGGLVKPGGSLKLSCAASGFTFSDYFMYWVRQTPEKRLEWVAIISDGGIYTYYPDSVKGRFTISRDNAKNNLYLQMSSLKSEDTAMYYCARDGRDDYDGWYFDVWGAGTTVTVSSGGGGSGGGGSGGGGSDIVMTQSHKFMSTSVGDRVNITCKASQDVNTAVAWYQQKPGQSPKLLIYWASTRHAGVPDRFTGSGSGTDYALTISSVQAEDLALYYCQQHYSTPRTFGGGTKLEIK

Kd: 0.25 nM
B6: 25A10 scFv (tested as anti-CD38 CARs, versions V1, V2 and V3) (scFv)
scFv: EVQLQQSGAELVRPGASVKLSCTASGFNIKDSLIHWVKQRPEQGLEWIGWIDPEDDKTKYAPKFQDKATLTADTSSNTAYLQLSTLTSEDTAIYYCVSRYINYYFAYWGQGTTLTVSSGGGGSGGGGSGGGGSDIVMTQSPSSLTVTAGEKVTMSCKSSQSLLHSGNQRNYLTWYQQKPGQPPKLLIYWASTRESGVPDRFTGSGSGTDFTLTISSVQAEDLAVYYCQNDYDYPYTFGGGTKLEIK
